Results on four molecules are retold here after paper PMC11139983.

Test [1] concerns the target VUN701. Kind of test: BRET-based β-arrestin2 recruitment competition assay (functional KB). The conditions noted are these: 90% effective concentration of CXCL12 determined for each ACKR3 variant; parent: est. 0.0; read off a plot. In general terms: Bioluminescence resonance energy transfer reports proximity on the nanometre scale.
In test [2] the target is atypical chemokine receptor 3 (ACKR3) (human).
atypical chemokine receptor 3 (ACKR3) (human), sequence (chain, as listed by the source): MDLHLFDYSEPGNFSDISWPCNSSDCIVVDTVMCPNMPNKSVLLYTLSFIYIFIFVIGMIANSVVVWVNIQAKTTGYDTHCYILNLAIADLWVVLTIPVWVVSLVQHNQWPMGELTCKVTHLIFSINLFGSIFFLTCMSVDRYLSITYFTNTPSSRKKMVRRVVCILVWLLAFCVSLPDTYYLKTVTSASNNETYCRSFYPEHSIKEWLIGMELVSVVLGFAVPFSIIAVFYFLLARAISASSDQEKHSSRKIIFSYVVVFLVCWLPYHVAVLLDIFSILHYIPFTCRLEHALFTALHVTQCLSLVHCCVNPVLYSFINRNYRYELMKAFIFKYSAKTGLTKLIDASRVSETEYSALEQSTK
Test [3] has the same target. The source holds these as a separate data set.

For “atypical chemokine receptor 3 (ACKR3) D275A”, the log10 ratio in test [1] is -1.8.

Turning to “atypical chemokine receptor 3 (ACKR3) F285A”, the log10 ratio in test [1] was -2.4.

Take “atypical chemokine receptor 3 (ACKR3) E290A”: in test [1], the log10 ratio was -1.8.

B1: VUN701 (VHH)
VHH: QVQLVESGGGLVQAGGSLRLSCAASGSTFSLHLMGWYRQAPGKQREVVATSGSGGDTNYADSVKGRFTISRDNDKNTVDLQMNNLKPEDTADYYCRAQQKIGRDTFRDYWGQGTQVTVSS
B1 had a KB from Schild analysis of CXCL12-induced β-arrestin2 recruitment to ACKR3 (BRET); blocks m3 with m2 in test [2] of 18.2 nM. In test [3], the IC50 of inhibition of CXCL11-induced β-arrestin2 recruitment to ACKR3 (BRET, HEK293T); blocks m4 with m2 is 105 nM; the IC50 of inhibition of CXCL12-induced β-arrestin2 recruitment to ACKR3 (BRET, HEK293T); blocks m3 with m2 worked out at 157 nM; the KB (Cheng-Prusoff) from inhibition of CXCL11-induced β-arrestin2 recruitment to ACKR3 (BRET); blocks m4 with m2 turned out to be 23.3 nM; the KB (Cheng-Prusoff) from inhibition of CXCL12-induced β-arrestin2 recruitment to ACKR3 (BRET); blocks m3 with m2 came to 9.8 nM. In addition, the pKB (Cheng-Prusoff) from inhibition of CXCL11-induced β-arrestin2 recruitment to ACKR3 (BRET); blocks m4 with m2 in test [3] is 8.64.
